Tests used:
[1] = molecular target: HLA-B*15:01; assay: IEDB peptide-MHC binding, purified MHC/direct/fluorescence; filed as Kd, often an IC50 or EC50 that approximates it; ≥ and ≤ were set here for values at or beyond the usual limits of such assays
[2] = molecular target: HLA-B*18:01; assay: as above
[3] = molecular target: HLA-A*02:12; assay: as above
[4] = molecular target: HLA-A*02:06; assay: as above
[5] = molecular target: HLA-A*02:01; assay: as above
[6] = molecular target: HLA-B*57:01; assay: as above; conditions: source organism: Salmonella enterica subsp. enterica serovar Typhimurium
[7] = molecular target: HLA-B*46:01; assay: as above
[8] = molecular target: HLA-A*03:01; assay: as above
[9] = molecular target: HLA-B*27:03; assay: as above; conditions: source organism: Salmonella enterica subsp. enterica serovar Typhimurium
[10] = molecular target: HLA-A*02:50; assay: IEDB peptide-MHC binding, purified MHC/competitive/fluorescence; filed as Kd, often an IC50 or EC50 that approximates it; ≥ and ≤ were set here for values at or beyond the usual limits of such assays; conditions: source organism: Vibrio vulnificus YJ016
[11] = molecular target: HLA-A*69:01; assay: IEDB peptide-MHC binding, purified MHC/direct/fluorescence; filed as Kd, often an IC50 or EC50 that approximates it; ≥ and ≤ were set here for values at or beyond the usual limits of such assays; conditions: source organism: Vibrio vulnificus
[12] = molecular target: HLA-A*11:01; assay: as above; conditions: source organism: Vibrio vulnificus
[13] = molecular target: HLA-A*31:01; assay: as above; conditions: source organism: Vibrio vulnificus
[14] = molecular target: HLA-B*40:01; assay: as above; conditions: source organism: Vibrio vulnificus
[15] = molecular target: HLA-A*24:02; assay: as above; conditions: source organism: Vibrio vulnificus
[16] = molecular target: HLA-A*02:19; assay: as above; conditions: source organism: Vibrio vulnificus CMCP6
[17] = molecular target: HLA-B*08:02; assay: as above; conditions: source organism: Vibrio vulnificus CMCP6
[18] = molecular target: HLA-B*27:05; assay: as above; conditions: source organism: Vibrio vulnificus
[19] = molecular target: HLA-B*44:02; assay: as above; conditions: source organism: Vibrio vulnificus
[20] = molecular target: HLA-B*58:01; assay: as above; conditions: source organism: Vibrio vulnificus
[21] = molecular target: HLA-B*07:02; assay: as above; conditions: source organism: Vibrio vulnificus
[22] = molecular target: HLA-A*02:11; assay: as above; conditions: source organism: Vibrio vulnificus CMCP6
[23] = molecular target: HLA-A*02:03; assay: as above; conditions: source organism: Vibrio vulnificus CMCP6
[24] = molecular target: HLA-B*08:01; assay: as above; conditions: source organism: Vibrio vulnificus CMCP6
[25] = molecular target: HLA-A*01:01; assay: as above; conditions: source organism: Vibrio vulnificus
[26] = source organism: Salmonella enterica subsp. enterica serovar Typhimurium
[27] = source organism: Vibrio vulnificus
[28] = source organism: Vibrio vulnificus CMCP6

Which results are given for QVNDVLHSV?
Kd [1, 26]: ≥ 20 µM; Kd [2, 26]: ≥ 20 µM; Kd [3, 26]: 0.091 µM; Kd [4, 26]: 0.003 µM; Kd [5, 26]: 0.041 µM; Kd [6]: ≥ 20 µM; Kd [7, 26]: ≥ 20 µM; Kd [8, 26]: ≥ 20 µM; Kd [9]: ≥ 20 µM

Which results are given for GLKELGDWV?
Kd [10]: ≤ 0.0001 µM; Kd [11]: ≥ 5 µM; Kd [1, 27]: ≥ 20 µM; Kd [12]: ≥ 20 µM; Kd [13]: ≥ 20 µM; Kd [2, 27]: ≥ 20 µM; Kd [3, 28]: 0.12 µM; Kd [14]: ≥ 20 µM; Kd [15]: ≥ 20 µM; Kd [4, 28]: 0.145 µM; Kd [16]: ≥ 20 µM; Kd [17]: ≥ 20 µM; Kd [18]: ≥ 20 µM; Kd [5, 27]: 0.637 µM; Kd [19]: ≥ 20 µM; Kd [20]: ≥ 20 µM; Kd [21]: ≥ 20 µM; Kd [7, 27]: ≥ 20 µM; Kd [22]: 0.009 µM; Kd [23]: 0.002 µM; Kd [24]: ≥ 20 µM; Kd [8, 27]: ≥ 20 µM; Kd [25]: ≥ 20 µM

Reference: the Immune Epitope Database (IEDB)
